Source: patent US20220213227A1 (published 2022)

Biological target: T1, soluble extracellular region of cynomolgus monkey CD38 antigen fused to a 6-His-tag (UniProt Q5VAN0 45-301)
T1 chain: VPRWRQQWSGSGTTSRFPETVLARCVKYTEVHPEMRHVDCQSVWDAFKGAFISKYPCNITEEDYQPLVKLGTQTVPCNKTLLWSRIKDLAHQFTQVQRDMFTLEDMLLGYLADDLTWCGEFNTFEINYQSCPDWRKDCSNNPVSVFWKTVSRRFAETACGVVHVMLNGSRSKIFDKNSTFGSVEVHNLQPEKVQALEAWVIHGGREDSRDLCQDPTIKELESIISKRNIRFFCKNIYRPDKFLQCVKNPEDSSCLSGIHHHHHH
Assay: SPR

Kd: 1 nM
B1: chimeric 9G7 antibody (antibody, V domains shown)
VH: QVTLKESGPGILQPSQTLSLTCSFSGLSLSTSGKGVGWIRQPSGKGLEWLAHIWWDDDKRYNPALKSRLTISKDTSSNQVFLKIASVDTADTATYYCARIELGRSYVMDYWGQGTTVTVSS
VL: DIVMTQSHKFMSTSVGDRVSISCKASQDVITSVAWFQQKPGQSPKLLIYSASYRYTGVPDRFTGSGSGTDFTFTISSVQAEDLAVYYCQQHYTIPLTFGAGTKLELKR
